How the values were obtained:
[1] = molecular target: membrane receptor interacting with BLV (unknown) (human); test: flow cytometry, tagged RBD on blood neutrophils of one CF patient
[2] = molecular target: membrane receptor interacting with BLV (unknown) (human); test: flow cytometry, tagged RBD on sputum neutrophils of one CF patient

**Q.** What does the source list for “Bovine Leukaemia Virus receptor-binding domain (BLV RBD) (from UniProt P25507 34-215)”?
**A.** deltaGeomean of fluorescence [1]: 0; deltaGeomean of fluorescence [2]: 140

From patent US20130260394A1
